Settings in all cases: both partners purified
Experiment [1] deals with T1, C1 esterase inhibitor (commercial, Calbiochem) (UniProt P05155 23-500).
T1 construct: source: bought: Calbiochem
T1 sequence (looked up): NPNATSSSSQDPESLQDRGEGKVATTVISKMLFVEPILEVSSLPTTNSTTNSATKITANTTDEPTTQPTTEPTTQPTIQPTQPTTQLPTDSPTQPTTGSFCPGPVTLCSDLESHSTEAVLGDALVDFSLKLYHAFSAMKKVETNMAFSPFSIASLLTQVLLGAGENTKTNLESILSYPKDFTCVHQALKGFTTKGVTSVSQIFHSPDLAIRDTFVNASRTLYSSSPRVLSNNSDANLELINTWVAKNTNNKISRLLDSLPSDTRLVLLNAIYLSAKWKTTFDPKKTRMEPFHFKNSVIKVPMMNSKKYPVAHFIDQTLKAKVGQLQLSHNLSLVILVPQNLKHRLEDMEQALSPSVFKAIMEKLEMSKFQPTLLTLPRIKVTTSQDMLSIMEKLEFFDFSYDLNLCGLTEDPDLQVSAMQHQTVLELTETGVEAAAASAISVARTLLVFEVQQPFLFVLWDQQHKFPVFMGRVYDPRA
Description: SPR; Biacore 2000/3000, CM5 chip, calumenin, GST-calumenin, reticulocalbin or GST amine-coupled; 25°C; 10 mM HEPES, 150 mM NaCl, 5 mM CaCl2, 1 mM EGTA, 0.005% Tween 20, pH 7.4; 1:1 Langmuir model; apparent KD from koff/kon. (Surface plasmon resonance follows binding to a sensor surface in real time, without labels.)

In experiment [2] the target is T2, GST-fibulin-1C (UniProt P23142-4 33-683).
T2 construct: fibulin-1C, amino acids 33-683, cloned into pGEX-4T3; the C variant has 683 amino acids; also called recombinant GST-fibulin-1C; source: E. coli, purified (glutathione-sepharose, Superdex 200)
T2 sequence (looked up): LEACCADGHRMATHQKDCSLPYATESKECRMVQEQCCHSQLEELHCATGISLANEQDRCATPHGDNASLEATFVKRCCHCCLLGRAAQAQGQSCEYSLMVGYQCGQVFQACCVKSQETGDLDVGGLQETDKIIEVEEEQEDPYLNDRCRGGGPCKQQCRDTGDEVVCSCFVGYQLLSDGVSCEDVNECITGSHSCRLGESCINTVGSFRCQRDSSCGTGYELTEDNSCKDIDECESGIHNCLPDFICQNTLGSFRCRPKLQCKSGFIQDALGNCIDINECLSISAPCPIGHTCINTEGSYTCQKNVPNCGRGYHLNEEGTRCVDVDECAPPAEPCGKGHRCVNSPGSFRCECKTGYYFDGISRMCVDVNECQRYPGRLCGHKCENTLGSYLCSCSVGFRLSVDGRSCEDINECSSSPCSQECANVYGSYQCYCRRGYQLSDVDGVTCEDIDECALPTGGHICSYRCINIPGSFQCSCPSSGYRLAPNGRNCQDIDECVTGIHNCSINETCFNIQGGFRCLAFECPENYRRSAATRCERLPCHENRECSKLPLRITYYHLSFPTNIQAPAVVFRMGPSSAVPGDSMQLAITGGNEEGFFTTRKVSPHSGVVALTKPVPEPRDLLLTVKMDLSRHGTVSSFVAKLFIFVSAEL
Described as above.

Experiment [3] deals with T3, recombinant GST-grp75 (AAH00478.1) (human, UniProt P38646 47-679).
T3 construct: also called glucose regulated protein 75; mortalin; source: bought: Abnova (Taipei, Taiwan)
The description is as above.

The target of experiment [4] is T2, GST-fibulin-1C. Briefly: SPR; reticulocalbin immobilised; buffer with EDTA (10 mM Hepes, 150 mM NaCl, 20 mM EDTA and 0.005% Tween 20 pH 7.4).

T3 sequence (P38646 47-679): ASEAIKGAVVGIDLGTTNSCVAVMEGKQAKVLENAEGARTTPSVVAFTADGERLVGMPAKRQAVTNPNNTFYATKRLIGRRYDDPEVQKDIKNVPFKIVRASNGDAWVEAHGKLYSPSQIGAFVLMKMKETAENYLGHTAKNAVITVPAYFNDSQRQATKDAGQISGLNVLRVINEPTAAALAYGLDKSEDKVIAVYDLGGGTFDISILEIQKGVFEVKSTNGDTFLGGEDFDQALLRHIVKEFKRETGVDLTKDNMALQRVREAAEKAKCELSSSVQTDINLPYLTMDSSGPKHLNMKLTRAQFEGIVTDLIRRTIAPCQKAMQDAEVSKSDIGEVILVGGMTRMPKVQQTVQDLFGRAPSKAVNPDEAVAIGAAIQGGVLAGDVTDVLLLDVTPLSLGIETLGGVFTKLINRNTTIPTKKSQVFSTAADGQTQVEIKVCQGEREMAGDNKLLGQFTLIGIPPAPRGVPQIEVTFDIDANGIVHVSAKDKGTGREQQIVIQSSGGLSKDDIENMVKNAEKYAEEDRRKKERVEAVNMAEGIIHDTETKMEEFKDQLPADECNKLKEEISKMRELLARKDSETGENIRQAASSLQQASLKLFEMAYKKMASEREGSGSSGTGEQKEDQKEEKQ

B1: GST-calumenin (natural protein, UniProt O43852 20-315, looked up)
chain: KPTEKKDRVHHEPQLSDKVHNDAQSFDYDHDAFLGAEEAKTFDQLTPEESKERLGKIVSKIDGDKDGFVTVDELKDWIKFAQKRWIYEDVERQWKGHDLNEDGLVSWEEYKNATYGYVLDDPDPDDGFNYKQMMVRDERRFKMADKDGDLIATKEEFTAFLHPEEYDYMKDIVVQETMEDIDKNADGFIDLEEYIGDMYSHDGNTDEPEWVKTEREQFVEFRDKNRDGKMDKEETKDWILPSDYDHAEAEARHLVYESDQNKDGKLTKEEIVDKYDLFVGSQATDFGEALVRHDEF
notes: source: E. coli, purified (glutathione-sepharose, Superdex 200)
For the molecule B1, the Kd in experiment [1] was roughly 150 nM; in experiment [2] it was roughly 50 nM.

B2: recombinant calumenin (immobilised; construct not told) (natural protein, UniProt O43852 20-315, looked up)
chain: B1 chain
notes: calumenin; also called immobilised calumenin; source: E. coli, purified
Consider B2, for which the Kd in experiment [3] is roughly 7 nM.

B3: recombinant reticulocalbin (natural protein)
chain: KPTVRKERVVRPDSELGERPPEDNQSFQYDHEAFLGKEDSKTFDQLSPDESKERLGKIVDRIDSDGDGLVTTEELKLWIKRVQKRYIYDNVAKVWKDYDRDKDEKISWEEYKQATYGYYLGNPAEFHDSSDHHTFKKMLPRDERRFKASDLDGDLTATREEFTAFLHPEEFEHMKEIVVLETLEDIDKNGDGFVDQDEYIADMFSHEDNGPEPDWVLSEREQFNDFRDLNKDGKLDKDEIRHWILPQDYDHAQAEARHLVYESDKNKDEMLTKEEILDNWNMFVGSQATNYGEDLTKNHDEL
modifications: Expressed in E. coli as a GST fusion; GST removed with thrombin. Species and limits are not printed: mouse is inferred because the plasmid came from Dr. Ozawa, whose original reticulocalbin clone was
In the case of B3, the Kd was roughly 1000 nM in experiment [1], roughly 3 nM in experiment [3], roughly 60 nM in experiment [2] and roughly 50 nM in experiment [4].

Source of the values: article PMC4498735, “Fibulin-1C, C1 Esterase Inhibitor and Glucose Regulated Protein 75 Interact with the CREC Proteins, Calumenin and Reticulocalbin” (PLoS ONE, 2015).
